Target: T1, human c-Met/Fc fusion protein (R&D Systems) (human, UniProt P08581 25-932)
T1 construct: Purchased reagent coated on ELISA plates; also called human c-Met/Fc protein; not shown: Fc part of the purchased fusion
Assay: ELISA, hybridoma culture on plate-coated human c-Met/Fc fusion protein (2 ug/mL)
Experimental: Human c-Met/Fc fusion protein was seeded in an amount of 50 μL (2 μg/mL)/well to microtiter plates and allowed to adhere to the surface of each well. The antibody that remained unbound was removed by washing.
The hybridoma cell culture obtained in Reference Example 1.1.2 was added in an amount of 50 μL to each well of the plates and incubated for 1 hour. The cells remaining unreacted were washed out with a sufficient amount of Tris-buffered saline and Tween 20 (TBST). Goat anti-mouse IgG-horseradish peroxidase (HRP) was added to the plates and incubated for 1 hour at room temperature. The plates were washed with a sufficient amount of TBST, followed by reacting the peroxidase with a substrate (OPD). Absorbance at 450 nm was measured on an ELISA reader.

T1 sequence (P08581 25-932): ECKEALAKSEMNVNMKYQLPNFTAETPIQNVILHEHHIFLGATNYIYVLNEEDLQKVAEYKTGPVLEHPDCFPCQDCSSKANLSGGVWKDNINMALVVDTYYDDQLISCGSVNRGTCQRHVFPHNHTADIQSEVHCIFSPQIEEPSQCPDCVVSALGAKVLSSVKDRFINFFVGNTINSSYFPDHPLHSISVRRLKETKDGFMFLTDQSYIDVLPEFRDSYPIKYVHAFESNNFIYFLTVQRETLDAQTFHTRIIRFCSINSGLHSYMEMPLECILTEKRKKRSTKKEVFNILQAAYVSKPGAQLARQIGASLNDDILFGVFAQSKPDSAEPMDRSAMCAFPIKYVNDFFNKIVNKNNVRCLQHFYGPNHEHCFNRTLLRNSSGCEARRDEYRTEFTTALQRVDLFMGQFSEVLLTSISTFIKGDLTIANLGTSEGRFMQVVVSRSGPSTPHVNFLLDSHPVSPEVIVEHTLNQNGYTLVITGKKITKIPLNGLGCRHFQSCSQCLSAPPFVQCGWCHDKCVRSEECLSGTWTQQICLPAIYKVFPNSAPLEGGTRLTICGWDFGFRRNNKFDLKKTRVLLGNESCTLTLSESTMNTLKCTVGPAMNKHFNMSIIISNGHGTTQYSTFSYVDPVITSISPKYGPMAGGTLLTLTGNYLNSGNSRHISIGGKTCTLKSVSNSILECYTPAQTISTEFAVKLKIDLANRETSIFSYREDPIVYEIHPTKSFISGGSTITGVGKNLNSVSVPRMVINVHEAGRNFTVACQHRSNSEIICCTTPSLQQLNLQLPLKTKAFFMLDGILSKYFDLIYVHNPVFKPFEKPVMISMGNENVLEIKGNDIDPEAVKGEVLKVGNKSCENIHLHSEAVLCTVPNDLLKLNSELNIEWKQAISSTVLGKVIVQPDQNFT

binding result: binds
B1: AbF46, a mouse antibody to c-Met (antibody, V domains shown)
VH: EVKLVESGGGLVQPGGSLRLSCATSGFTFTDYYMSWVRQPPGKALEWLGFIRNKANGYTTEYSASVKGRFTISRDNSQSILYLQMDTLRAEDSATYYCARDNWFAYWGQGTLVTVSA
VL: DILMTQSPSSLTVSAGEKVTMSCKSSQSLLASGNQNNYLAWHQQKPGRSPKMLIIWASTRVSGVPDRFIGSGSGTDFTLTINSVQAEDLAVYYCQQSYSAPLTFGAGTKLELK
notes: Mouse monoclonal antibody from the single hybridoma clone chosen by ELISA; In the screening assay it was present as hybridoma culture supernatant; also called monoclonal antibody of hybridoma KCLRF-BP-00220

— patent US20160144027A1 (SAMSUNG ELECTRONICS, published 2016)
